Assay results from paper doi:10.1101/2022.06.21.496751 (bioRxiv, 2022).

B1: Ab188 recombinant monoclonal antibody (IgG) (antibody, V domains shown)
VH: EVQLVESGGGLVQPGGSLRLSCAASGFTFINYKMNWVRQAPGKGLEWVSYISSGSDAIYYADSVKGRFTISRDNAKNSLYLQMNSLRDEDTALYYCARGGGYNYGECMDVWGQGTTVTVSS
VL: not shown
B2: Ab159 recombinant monoclonal antibody (IgG) (antibody, V domains shown)
VH: QVQLVESGGGLVKPGGSLRLSCAASGFTFNNAWMSWVRQAPGKGLEWVGRIKSKTDGGTTDYAAPVKGRFTFSRDDSKNTLYLQMSSLKTEDTALYYCTTADYDILTGTPASPYWGQGTLVTVSS
VL: DIQMTQSPSSLSASVGDRVTITCRASQSITNYLNWYQQKPGKAPKFLIYAASSLQGGVPSRFRGSGSGTDFTLTISSLQPEDFATYYCQQTYSTLWTFGQGTKVEIK
B3: Ab354 recombinant monoclonal antibody (IgG) (antibody, V domains shown)
VH: QVQLVQSGAEVKKPGASVTVSCKASGFLFTGYYMHWVRQAPGQGLEWMGWINPNSGASNYTRKFQGRVTMTRDTSISATYMKLSRLTSDDTAVYYCARDLAFSMVRGALDYWGQGTLVTVSS
VL: QLVLTQPPSASGSPGQSVTISCTGTSSDVGGYNYVSWYQHHPGKAPKLMIYEVSKRPSGVPDRFSGSKSGNTASLTVSGLQAEDEADYYCNSYAGNNNWVFGTGTKVTVL
B4: Ab326 recombinant monoclonal antibody (IgG) (antibody, V domains shown)
VH: EVQLVESGGGVVQPGRSLRLSCAASGFTFSHYPMHWVRQAPGRGLEWVAVISYDGSNQHYVDSVKGRFTISRDNSKNTLYLQMNSLRAEDTAVYFCASLITMIRGVPDYWGQGTLVTVSS
VL: DIQMTQSPSSLSASVGDRVTITCRASQSISNYLNWYQQKPGKAPNLLIFAASSLQSGVPSRFSGSGSGTEFTLTISSLQPEDFAAYYCLQTYSTPRTFGQGTRLEIK
B5: Ab496 recombinant monoclonal antibody (IgG) (antibody, V domains shown)
VH: EVQLVQSGPEVKKPGTSVKVSCKASGFIFTNSAVQWVRQARGQRLEWIGWIVVGSGNPNYAQKFQERVTITRDRSTSTAYMELSSLTSEDTAVYYCAAFPYYYDNSGSGPWGQGTLVTVSS
VL: DIQLTQSPSSLSASVGDRVTITCQASQDIRNNLNWYQQIPGKAPKLLIYDASNLETGVPSRFSGSASGTDFTFTISSLQPEDVATYYCQQYANLPPFTFGPGTKVDIK
B6: Ab445 recombinant monoclonal antibody (IgG) (antibody, V domains shown)
VH: EVQLVESGGGVVQPGTSPRLSCAASGFTFSNSGMHWVRQAPGKGLEWVAVIWYDGSKKYYVDSVKGRFTISRDNSKNTLYLQMNSLRAEDTAVYYCARDGTVAVRGVMNPFFDYWGQGTLVTVSS
VL: DIQLTQSPSSLSASVGDRVTITCQASQDISNYLNWYQQIPGKAPKLLIYDASNLETGVPSRFSGSGSGTDFTFTISSLQPEDIATYYCQQYDNLPYTFGQGTKLEIK

target: Spike of the SARS-CoV-2 Omicron (BA.1) variant expressed on 293T cells (SARS-CoV-2, Omicron BA.1, strain); test: flow cytometry on cells

Binder | binding result
B1 | binds

target: full-length Spike of SARS-CoV-2 (UniProtKB-P0DTC2) expressed on 293T cells (SARS-CoV-2, UniProt P0DTC2); test: flow cytometry on cells

Binder | binding result
B2 | binds
B3 | binds
B4 | binds
B1 | binds
B5 | binds
B6 | binds
